From US20210355220A1 (TIKCRO TECHNOLOGIES, published 2021)

These binders were tested against T1, human CTLA-4 expressed on cells (human, UniProt P16410 36-223) (assay: flow cytometry on HEK293-hCTLA-4 cells).
T1 construct: whole, on cells; On stably or transiently transfected HEK293 cells; also called hCTLA-4; HEK293-hCTLA-4 cells
Protocol: To test the binding of antibodies to CTLA-4 under more physiological conditions, the binding of CTLA-4 antibodies to cell-surface CTLA-4 was tested. […] The surface expression of hCTLA-4 in the obtained cell line was tested using a commercial anti-CTLA-4 antibody and compared to the parent cell line (HEK293 without transfection). […] The anti-CTLA-4 antibodies were incubated in serial dilution concentrations with the HEK293-hCTLA-4 cells for 1 hour on ice. Following a wash step, an anti-human antibody conjugated to ALEXA FLUOR® 647® was added for an additional hour. The cells were washed, and propidium iodide (PI) was added to exclude dead cells. The fluorescent signal was measured using FACS and analyzed. Dead cells were removed based on the PI signal. The population was gated based on forward and side scatter (FSC and SSC) parameters, and doublets were removed. The Median Fluorescent Intensity (MFI) of the appropriate channel was calculated for the live single cells from each group. The MFI was plotted versus antibody concentration in Prism software (V6.01) and kinetic parameters were obtained using a curve fit dose response function with four parameters. […] The lower EC₅₀ values indicate increased binding affinity to cell surface hCTLA-4.

T1 sequence (P16410 36-223): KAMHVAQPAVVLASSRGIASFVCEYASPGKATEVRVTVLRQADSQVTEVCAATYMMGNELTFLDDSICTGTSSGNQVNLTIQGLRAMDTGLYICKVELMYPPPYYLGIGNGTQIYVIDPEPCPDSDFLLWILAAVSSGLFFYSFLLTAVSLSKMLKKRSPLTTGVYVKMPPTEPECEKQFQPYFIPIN

Binder | EC50
Ab55h-PM1 (antibody, V domains shown) VH: QVQLQESGPGLVKPSETLSLTCAVSGYSISGDYYWNWIRQPPGKGLEWIGSIYHSGYTYYNPSLKSRVTISVDTSKNQFSLKLSSVTAADTAVYYCARDSGWYVIAFDYWGQGTLVTVSS VL: EIVMTQSPATLSVSPGERATLSCRASQSVSSNLAWYQEKPGQAPRLLIYGASTRATGIPARFSGSGSGTEFTLTISSLQSEDFAVYYCQQYNNWPPLTFGGGTKVEIK | 0.27 nM
Ab55h-PM6 (antibody, V domains shown) VH: QVQLQESGPGLVKPSETLSLTCAVSGYSISGDYYWGWIRQPPGKGLEWIGSIYHSGYTYYNPSLKSRVTISVDTSKNQFSLKLSSVTAADTAVYYCARDSGWYVIAFDIWGQGTLVTVSS VL: EIVMTQSPATLSVSPGERATLSCRASQSVSSNLAWYQEKPGQAPRLLIYGASTRATGIPARFSGSGSGTEFTLTISSLQSEDFAVYYCQQYNNWPPLTFGGGTKVEIK | 0.15 nM
Ab55h-PM15 (antibody, V domains shown) VH: QVQLQESGPGLVKPSETLSLTCAVSGYSISGDYYWGWIRQPPGKGLEWIGSIYHSGYTYYNPSLKSRVTISVDTSKNQFSLKLSSVTAADTAVYYCARDSGAYVIAFDYWGQGTLVTVSS VL: EIVMTQSPATLSVSPGERATLSCRASQSVSSNLAWYQEKPGQAPRLLIYGASTRATGIPARFSGSGSGTEFTLTISSLQSEDFAVYYCQQYNNWPPLTFGGGTKVEIK | 0.32 nM
Ab55h-PM4 (antibody, V domains shown) VH: QVQLQESGPGLVKPSETLSLTCAVSGYSISGDYYWGWIRQPPGKGLEWIGSIYHSGYTYYNPSVKSRVTISVDTSKNQFSLKLSSVTAADTAVYYCARDSGWYVIAFDYWGQGTLVTVSS VL: EIVMTQSPATLSVSPGERATLSCRASQSVSSNLAWYQEKPGQAPRLLIYGASTRATGIPARFSGSGSGTEFTLTISSLQSEDFAVYYCQQYNNWPPLTFGGGTKVEIK | 0.39 nM
Ab55h-PM5 (antibody, V domains shown) VH: QVQLQESGPGLVKPSETLSLTCAVSGYSISGDYYWGWIRQPPGKGLEWIGSIYHSGYTYYNPSLKSRVTISVDTSKNQFSLKLSSVTAADTAVYYCARDSGWYVIAFAYWGQGTLVTVSS VL: EIVMTQSPATLSVSPGERATLSCRASQSVSSNLAWYQEKPGQAPRLLIYGASTRATGIPARFSGSGSGTEFTLTISSLQSEDFAVYYCQQYNNWPPLTFGGGTKVEIK | 0.24 nM
Ab55h-PM14 (antibody, V domains shown) VH: QVQLQESGPGLVKPSETLSLTCAVSGYSISGDYYWGWIRQPPGKGLEWIGSIYHSGYTYYNPSLKSRVTISVDTSKNQFSLKLSSVTAADTAVYYCARDSGFYVIAFDYWGQGTLVTVSS VL: EIVMTQSPATLSVSPGERATLSCRASQSVSSNLAWYQEKPGQAPRLLIYGASTRATGIPARFSGSGSGTEFTLTISSLQSEDFAVYYCQQYNNWPPLTFGGGTKVEIK | 0.32 nM
Ab55h-PM16 (antibody, V domains shown) VH: QVQLQESGPGLVKPSETLSLTCAVSGYSISGDYYWGWIRQPPGKGLEWIGSIYHSGYTYYNPSLKSRVTISVDTSKNQFSLKLSSVTAADTAVYYCARDSGWYVIAFDYWGQGTLVTVSS VL: EIVMTQSPATLSVSPGERATLSCRASQSVSSNLAWYQEKPGQAPRLLIYGASTRATGIPARFSGSGSGTEFTLTISSLQSEDFAVYYCQQYANWPPLTFGGGTKVEIK | 0.27 nM
Ab55h-PM9 (antibody, V domains shown) VH: QVQLQESGPGLVKPSETLSLTCAVSGYSISGDYYWGWIRQPPGKGLEWIGSIYHSGYTYYNPSLKSRVTISVDTSKNQFSLKLSSVTAADTAVYYCARDSGWYVIAFDYWGQGTLVTVSS VL: EIVMTQSPATLSVSPGERATLSCRASQSVSSNLAWYQEKPGQAPRLLIYGATTRATGIPARFSGSGSGTEFTLTISSLQSEDFAVYYCQQYNNWPPLTFGGGTKVEIK | 0.26 nM
Ab55h-PM8 (antibody, V domains shown) VH: QVQLQESGPGLVKPSETLSLTCAVSGYSISGDYYWGWIRQPPGKGLEWIGSIYHSGYTYYNPSLKSRVTISVDTSKNQFSLKLSSVTAADTAVYYCARDSGWYVIAFDYWGQGTLVTVSS VL: EIVMTQSPATLSVSPGERATLSCRASQSVSSNLAWYQEKPGQAPRLLIYAASTRATGIPARFSGSGSGTEFTLTISSLQSEDFAVYYCQQYNNWPPLTFGGGTKVEIK | 0.16 nM
Ab55h-PM13 (antibody, V domains shown) VH: QVQLQESGPGLVKPSETLSLTCAVSGYSISGDYYWGWIRQPPGKGLEWIGSIYHSGYTYYNPSLKSRVTISVDTSKNQFSLKLSSVTAADTAVYYCARDVGWYVIAFDYWGQGTLVTVSS VL: EIVMTQSPATLSVSPGERATLSCRASQSVSSNLAWYQEKPGQAPRLLIYGASTRATGIPARFSGSGSGTEFTLTISSLQSEDFAVYYCQQYNNWPPLTFGGGTKVEIK | 0.22 nM
Ab55h-PM11 (antibody, V domains shown) VH: QVQLQESGPGLVKPSETLSLTCAVSGYSISGDYYWGWIRQPPGKGLEWIGSIYHSGYTYYNPSLKSRVTISVDTSKNQFSLKLSSVTAADTAVYYCARDSGWYVIGFDYWGQGTLVTVSS VL: EIVMTQSPATLSVSPGERATLSCRASQSVSSNLAWYQEKPGQAPRLLIYGASTRATGIPARFSGSGSGTEFTLTISSLQSEDFAVYYCQQYNNWPPLTFGGGTKVEIK | 0.21 nM
Ab55h-PM2 (antibody, V domains shown) VH: QVQLQESGPGLVKPSETLSLTCAVSGYSISGDYYWGWIRQPPGKGLEWIGSIYHDGYTYYNPSLKSRVTISVDTSKNQFSLKLSSVTAADTAVYYCARDSGWYVIAFDYWGQGTLVTVSS VL: EIVMTQSPATLSVSPGERATLSCRASQSVSSNLAWYQEKPGQAPRLLIYGASTRATGIPARFSGSGSGTEFTLTISSLQSEDFAVYYCQQYNNWPPLTFGGGTKVEIK | 0.52 nM
Ab55h-PM7 (antibody, V domains shown) VH: QVQLQESGPGLVKPSETLSLTCAVSGYSISGDYYWGWIRQPPGKGLEWIGSIYHSGYTYYNPSLKSRVTISVDTSKNQFSLKLSSVTAADTAVYYCARDSGWYVIAFDYWGQGTLVTVSS VL: EIVMTQSPATLSVSPGERATLSCRASQSISSNLAWYQEKPGQAPRLLIYGASTRATGIPARFSGSGSGTEFTLTISSLQSEDFAVYYCQQYNNWPPLTFGGGTKVEIK | 0.18 nM
Ab55h-PM10 (antibody, V domains shown) VH: QVQLQESGPGLVKPSETLSLTCAVSGYSISGDYYWGWIRQPPGKGLEWIGSIYHSGYTYYNPSLKSRVTISVDTSKNQFSLKLSSVTAADTAVYYCARDSGWYVIAFDYWGQGTLVTVSS VL: EIVMTQSPATLSVSPGERATLSCRASQSVSSNLAWYQEKPGQAPRLLIYGASSRATGIPARFSGSGSGTEFTLTISSLQSEDFAVYYCQQYNNWPPLTFGGGTKVEIK | 0.24 nM
Ab55h-PM3 (antibody, V domains shown) VH: QVQLQESGPGLVKPSETLSLTCAVSGYSISGDYYWGWIRQPPGKGLEWIGSIYHSAYTYYNPSLKSRVTISVDTSKNQFSLKLSSVTAADTAVYYCARDSGWYVIAFDYWGQGTLVTVSS VL: EIVMTQSPATLSVSPGERATLSCRASQSVSSNLAWYQEKPGQAPRLLIYGASTRATGIPARFSGSGSGTEFTLTISSLQSEDFAVYYCQQYNNWPPLTFGGGTKVEIK | 0.42 nM
Ab55h-PM12 (antibody, V domains shown) VH: QVQLQESGPGLVKPSETLSLTCAVSGYSISGDYYWGWIRQPPGKGLEWIGSIYHSGYTYYNPSLKSRVTISVDTSKNQFSLKLSSVTAADTAVYYCARDSGWYVIAYDYWGQGTLVTVSS VL: EIVMTQSPATLSVSPGERATLSCRASQSVSSNLAWYQEKPGQAPRLLIYGASTRATGIPARFSGSGSGTEFTLTISSLQSEDFAVYYCQQYNNWPPLTFGGGTKVEIK | 0.24 nM
